Key:
HER2 (cell surface) [1] = target: T1, HER2 (cell surface) (human, UniProt P04626); experiment: FACS, A431 cells
HER2 (cell surface) [2] = target: T1, HER2 (cell surface); experiment: FACS, AU565 cells

B1: 098 (PC1014-098) (antibody, V domains shown)
VH: EVQLLESGGGLVQPGGSLRLSCAASGFTFSNYGMSWVRQAPGKGLEWVSAISGSAYSTYYADSVKGRFTISRDNSKNTLWLQMNSLRAEDTAVYYCAKAHYHGSGSYYTLFDYWGQGTLVTVSS
VL: DIQMTQSPSSLSASVGDRVTITCRASQGISSWLAWYQQKPEKAPKSLIYAASSLQSGVPSRFSGSGSGTDFTLTISSLQPEDFATYYCQQYNSYPYTFGQGTKLEIK
Binder B1 has an EC50 (HER2 (cell surface) [1]) of 0.068 µg/mL and an EC50 (HER2 (cell surface) [2]) of 0.336 µg/mL.
